# Laboratory results published in patent publication US20180092964A1.
# Molecular target: VLDL receptor (VLDLR) on U937 clone 10 cells (UniProt P98155)
# Assay: cell-based or functional assay
substance,measurement,value
low endotoxin recombinant RAP (LDL Receptor-Associated Protein) (from UniProt P30533 35-357),"HIV-1 infectivity of U937 clone 10 cells preconditioned with RAP for 15 min, then with α1PI, and cultured for 8 days",93%
